T1: human PVRIG-his (AcroBiosystems, Cat NO. PVG-H52H4) (human, UniProt Q6DKI7 41-171, limits assumed)
T1 construct: treated as the same protein; also called human PVRIG-His protein; Human PVRIG-His, Acro C227P1-9ARF1-T4
T1 sequence (looked up): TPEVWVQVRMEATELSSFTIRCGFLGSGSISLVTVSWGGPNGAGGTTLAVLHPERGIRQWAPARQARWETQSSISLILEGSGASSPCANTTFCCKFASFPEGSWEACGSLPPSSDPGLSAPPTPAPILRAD

T2: cynomolgus monkey PVRIG on FlpinCHO-cyno PVRIG cells (cynomolgus monkey, UniProt A0A2K5WVV8 41-322)
T2 construct: whole, on cells; also called FlpinCHO-cynomolgus monkey PVRIG
T2 sequence: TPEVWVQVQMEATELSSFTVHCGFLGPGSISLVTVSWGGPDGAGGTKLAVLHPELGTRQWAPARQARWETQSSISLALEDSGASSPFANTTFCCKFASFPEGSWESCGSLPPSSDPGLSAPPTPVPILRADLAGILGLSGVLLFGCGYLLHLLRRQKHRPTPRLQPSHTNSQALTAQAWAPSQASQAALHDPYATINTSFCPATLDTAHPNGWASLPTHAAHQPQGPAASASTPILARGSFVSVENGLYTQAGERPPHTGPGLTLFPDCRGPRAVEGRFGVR

T3: human PVRIG-mFc protein (Acro, PVG-H5253) (human, UniProt Q6DKI7 41-171, limits assumed)
T3 construct: bought reagent; also called PVRIG-ECD-mFc
T3 sequence (looked up): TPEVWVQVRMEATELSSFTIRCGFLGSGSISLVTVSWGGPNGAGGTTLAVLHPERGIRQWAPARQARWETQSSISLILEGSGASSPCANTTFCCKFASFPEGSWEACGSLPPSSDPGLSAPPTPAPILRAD

T4: full-length human TIGIT on CHO-K1 cells (CHO-K1 human TIGIT) (human, UniProt Q495A1 22-244)
T4 construct: NCBI XP_024309156.1; entry includes the signal peptide; also called high expression strain 1D2; medium expression strain 2D10
T4 sequence: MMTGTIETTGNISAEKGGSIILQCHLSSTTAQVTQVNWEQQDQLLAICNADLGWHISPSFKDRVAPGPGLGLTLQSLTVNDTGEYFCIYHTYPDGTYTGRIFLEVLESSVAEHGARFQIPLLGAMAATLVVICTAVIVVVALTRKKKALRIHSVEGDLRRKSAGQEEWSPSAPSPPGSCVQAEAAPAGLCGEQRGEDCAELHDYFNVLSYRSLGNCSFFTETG


Key:
[1] = molecular target: T1, human PVRIG-his (AcroBiosystems, Cat …); assay: ELISA, coated human PVRIG-his
[2] = molecular target: T2, cynomolgus monkey PVRIG on …; assay: FACS, FlpinCHO-cyno PVRIG cells
Protocol: After discarding the cell culture medium, the cells were rinsed with PBS and digested for 8-10 minutes by adding 1 mL Versene (Gibico, 15040-066). The Ham's F12 (Gibico, 21127-022) complete medium containing 10% FBS was then added to terminate the digestion and acquire cell suspension. After counting with a cell counter (Beckman Coulter, Vi-CELL), an appropriate amount of cell suspension was centrifuged at 350×g to remove the supernatant, washed twice with PBS, stained with Zombie violet (Biolegend, 423114) and incubated at room temperature for 20 minutes. After incubation, the cells were added with staining buffer (2% FBS+PBS) to stop staining, centrifuged at 350×g to remove the supernatant, washed twice and resuspended with staining buffer to a density of 2×10⁶ cells/mL. The cells were plated into a 96-well plate (50 μL of cell suspension per well) for further use. The antibodies were diluted from the highest concentration of 46 nM (two-fold concentration) with staining buffer by 3.3-fold serial dilution. The diluted antibodies were added to the well containing 50 μL of cell suspension. The plate was placed on a microplate shaker at 400 rpm for 1 minute to fully mix the antibodies and cells, and then incubated at 4° C. for 30 minutes. After the incubation, the cells were washed twice with staining buffer (200 μL per well) and centrifuged at 350×g for 5 minutes to discard the supernatant. The PE goat anti-human IgG Fc antibody (ebioscience, 12-4998-82) was diluted 250 times with staining buffer, added into the washed wells (100 μL per well), mixed well, and stained at 4° C. for 30 minutes. After staining, the cells were washed twice with staining buffer, finally resuspended with 200 μL staining buffer and analyzed by flow cytometry (BD, Canto II). […] An antibody binding curve was drawn with concentration of antibodies as the abscissa and the corresponding Mean Fluorescence Intensity (MFI) as the ordinate. The AUC value of the curve was calculated by using a Four Parameter Logistic Fit (GraphPadPrism9). […]

[3] = molecular target: T3, human PVRIG-mFc protein (Acro, …); assay: competition FACS; blocked: human PVRIG-mFc binding to CHO-K1-CD112 cells
Procedure, shortened: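 CHO-K1-CD112 cells stained with Zombie violet were added to the mixture for another 30 min at 4° C, and bound PVRIG-mFc was detected with PE goat anti-mouse IgG Fc (1:250) as mean fluorescence intensity on a BD Canto II. IC50 values were read off the resulting competition curve.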

[4] = molecular target: T4, full-length human TIGIT on CHO-K1 cells …; assay: FACS, CHO-K1 human TIGIT medium expression strain
Protocol: The collected cells were washed once with PBS (Hyclone, Cat NO. SH30256), resuspended to 2×10⁵/50 μL with 1% BSA-PBS. The antibodies were diluted to 80 nM with 1% BSA-PBS (diluted by 3-fold serial dilution for 12 concentration points). The 50 μL cells were then mixed with 50 μL diluted antibodies, and then incubated at 4° C. for 60 minutes. […] After washing twice with PBS, the cell samples were resuspended with 1% BSA-PBS, 100 μL/well and then analyzed by flow cytometry (BD, Canto II).

Binder | EC50 (read off the curve) [1] [pM] | EC50 (read off the curve) [2] [pM] | IC50 (read off the curve) [3] [pM] | EC50 (read off the curve) [4] [pM]
SRF813-hIgG1 (antibody, V domains shown, human IgG1 format by its name) VH: QVQLVQSGAEVKKPGSSVKVSCKASGGTFSSAAISWVRQAPGQGLEWMGNIIPIVGIANYAQKFQGRVTITADESTSTAYMELSSLRSEDTAVYYCARDTGRGYTRHFWFDPWGQGTLVTVSS VL: DIQMTQSPSSLSASVGDRVTITCRASQSISSYLNWYQQKPGKAPKLLIYAASSLQSGVPSRFSGSGSGTDFTLTISSLQPEDFATYYCQQSDILYTFGGGTKVEIK | ~50 | ~1000 | ~1000 | –
RG6058-hIgG1 (antibody, V domains shown, human IgG1 format by its name; also called Roche RG6058; control antibody RG6058) VH: EVQLQQSGPGLVKPSQTLSLTCAISGDSVSSNSAAWNWIRQSPSRGLEWLGKTYYRFKWYSDYAVSVKGRITINPDTSKNQFSLQLNSVTPEDTAVFYCTRESTTYDLLAGPFDYWGQGTLVTVSS VL: not shown | – | – | – | ~400
PVRIG-A105 (VHH, tested as VHH-hinge-CH2-CH3 (human IgG1-Fc); not shown: human IgG1 hinge-CH2-CH3) VHH: EVQLVESGGGLVQAGGSLRLSCAASGRTFDRHTMTWFRQAPGKEREFVATASRIPGDTYYSHSVKGRFTISRDNAKNTVYLQLNNLKPEDTAVYYCAATSAYCSEVDCYEKGSWYDNWGQGIQVTVSS | – | ~500 | – | –

Reference: patent publication US20240343803A1 (SHANDONG SIMCERE BIOPHARMACEUTICAL, published 2024)
